Consider 1 substance from patent publication US20260152561A1.

The target in experiment [1] is MICA/MICB on tumor cells (MGC-803, U2OS). The experiment can be described thus: cell-based or functional assay.
In experiment [2] the target is PD-L1 on tumor cells (EMT6-PD-L1, U2OS) (UniProt Q9NZQ7). The experiment can be described thus: cell-based or functional assay.
Chain of UniProt Q9NZQ7 (Q9NZQ7 19-290 limits assumed): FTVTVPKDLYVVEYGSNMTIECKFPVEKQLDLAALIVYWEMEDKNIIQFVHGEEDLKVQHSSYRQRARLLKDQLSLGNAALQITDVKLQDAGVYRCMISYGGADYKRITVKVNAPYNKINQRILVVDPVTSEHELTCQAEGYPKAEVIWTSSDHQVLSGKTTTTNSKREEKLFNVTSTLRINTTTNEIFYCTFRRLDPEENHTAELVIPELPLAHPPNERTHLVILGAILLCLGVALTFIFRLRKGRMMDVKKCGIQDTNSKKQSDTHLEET

On to “dual-targeting chimeric antigen receptor PD1-DAP10-41BB-P2A-NKG2D-IgG4-CD28-41BB-CD3ζ, expressed on NK92 cells (PN-CAR-NK92)”, for which the cytotoxicity (luciferase killing assay, effector-to-target ratio 5:1) on U2OS cells in experiment [1] and in experiment [2] was 6 fold in each case.
